Measurements as given in US11932845B2, “Microorganisms and methods for production of 4-hydroxybutyrate, 1,4-butanediol and related compounds” (priority 2012, dated 2024).

Tests used:
[1] = test system: alcohol dehydrogenase from Brevibacterium sp KU 1309; conditions: reduction of carbonyl compounds; cited from earlier work
[2] = test system: D(−)-lactate dehydrogenase from L. leichmanii; conditions: compared with that on pyruvate; cited from earlier work
[3] = test system: branched chain alpha-ketoacid decarboxylase (BCKA); conditions: decarboxylation; cited from earlier work
[4] = test system: L(+)-lactate dehydrogenase from A. eutrophus; conditions: compared with that on pyruvate; cited from earlier work
[5] = target: T1, L(+)-lactate dehydrogenase from rabbit muscle (Oryctolagus cuniculus, UniProt P13491); conditions: compared with that on pyruvate; cited from earlier work
T1 construct: host or cells: rabbit muscle

[6] = Minohara et al., 2002; read-out: Km for O2; cited from earlier work
Aldehyde dehydrogenase = Aldehyde dehydrogenase (ALD) assay in the reductive direction, cell extracts; conditions: cell extracts from MG1655 lacI^Q containing pZA33
Experimental: (§1) Alcohol (ADH) and aldehyde (ALD) dehydrogenase was assayed in the reductive direction using a procedure adapted from several literature sources (Durre et al., FEMS Microbiol. Rev. 17:251-262 (1995); Palosaari and Rogers, J. Bacteriol. 170:2971-2976 (1988) and Welch et al., Arch. Biochem. Biophys. 273:309-318 (1989). The oxidation of NADH is followed by reading absorbance at 340 nm every four seconds for a total of 240 seconds at room temperature. The reductive assays were performed in 100 mM MOPS (adjusted to pH 7.5 with KOH), 0.4 mM NADH, and from 1 to 50 μl of cell extract. The reaction is started by adding the following reagents: 100 μl of 100 mM acetaldehyde or butyraldehyde for ADH, or 100 μl of 1 mM acetyl-CoA or butyryl-CoA for ALD. The Spectrophotometer is quickly blanked and then the kinetic read is started. The resulting slope of the reduction in absorbance at 340 nm per minute, along with the molar extinction coefficient of NAD(P)H at 340 nM (6000) and the protein concentration of the extract, can be used to determine the specific activity.
(§2) Gene candidates for the 4-HB to BDO conversion pathway were next tested for activity when expressed in the E. coli host MG1655 lacI^Q. Recombinant strains containing each gene candidate expressed on pZA33 were grown in the presence of 0.25 mM IPTG for four hours at 37° C. to fully induce expression of the enzyme. Four hours after induction, cells were harvested and assayed for ADH and ALD activity as described above.

Alcohol dehydrogenase = Alcohol dehydrogenase (ADH) assay in the reductive direction, cell extracts; conditions: cell extracts from MG1655 lacI^Q containing pZA33
Experimental: as §1, §2

cytochrome-bd oxidases = conditions: cited from earlier work
[7] = target: T2, phosphotransbutyrylase (ptb) (Clostridium acetobutylicum, UniProt P58255); test: PTB enzyme activity, butyryl-CoA to butyryl-phosphate, DTNB; type: biochemical, C. acetobutylicum; conditions: extracts of cells with pZA33-0020-0021
T2 sequence (P58255 whole entry, looked up): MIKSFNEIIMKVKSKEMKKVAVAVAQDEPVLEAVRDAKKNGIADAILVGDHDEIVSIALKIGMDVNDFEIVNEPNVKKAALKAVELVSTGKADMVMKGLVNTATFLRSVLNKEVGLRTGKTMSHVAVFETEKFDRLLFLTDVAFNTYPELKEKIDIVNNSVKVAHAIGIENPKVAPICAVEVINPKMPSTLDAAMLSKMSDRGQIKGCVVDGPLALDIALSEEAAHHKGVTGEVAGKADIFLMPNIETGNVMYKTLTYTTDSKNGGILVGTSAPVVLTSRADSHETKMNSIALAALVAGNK
Experimental: The enzyme activity of PTB is measured in the direction of butyryl-CoA to butyryl-phosphate as described in Cary et al. J. Bacteriol. 170:4613-4618 (1988). It provides inorganic phosphate for the conversion, and follows the increase in free CoA with the reagent 5,5′-dithiobis-(2-nitrobenzoic acid), or DTNB. DTNB rapidly reacts with thiol groups such as free CoA to release the yellow-colored 2-nitro-5-mercaptobenzoic acid (TNB), which absorbs at 412 nm with a molar extinction coefficient of 14,140 M cm^−1. The assay buffer contained 150 mM potassium phosphate at pH 7.4, 0.1 mM DTNB, and 0.2 mM butyryl-CoA, and the reaction was started by addition of 2 to 50 μL cell extract. The enzyme activity of BK is measured in the direction of butyrate to butyryl-phosphate formation at the expense of ATP. The procedure is similar to the assay for acetate kinase previously described Rose et al., J. Biol. Chem. 211:737-756 (1954). […] This assay links conversion of ATP to ADP by acetate kinase to the linked conversion of ADP and phosphoenolpyruvate (PEP) to ATP and pyruvate by pyruvate kinase, followed by the conversion of pyruvate and NADH to lactate and NAD+ by lactate dehydrogenase. […] The reaction was started by adding 2 to 50 μL cell extract, and the reaction was monitored based on the decrease in absorbance at 340 nm indicating NADH oxidation.

[8] = test system: 4-HB to BDO conversion pathway; test: Production of BDO from 10 mM 4-HB in recombinant E. coli strains; conditions: for BDO: adhE2 in pZE13
Experimental: For the BDO production experiments, cat2 from Porphyromonas gingivalis W83 (gene 0034) was included on pZA33 for the conversion of 4-HB to 4-HB-CoA, while the candidate dehydrogenase genes were expressed on pZE13. The host strain was MG1655 lacI^Q. Along with the alcohol and aldehyde dehydrogenase candidates, we also tested the ability of CoA-dependent succinic semialdehyde dehydrogenases (sucD) to function in this step, due to the similarity of the substrates. Cells were grown to an OD of about 0.5 in LB medium supplemented with 10 mM 4-HB, induced with 1 mM IPTG, and culture broth samples taken after 24 hours and analyzed for BDO as described below.
Finally, the construct was tested for participation in the conversion of 4-HB to BDO. Host strains were transformed with the pZA33-0020-0021 construct described and pZE13-0002, and compared to use of cat2 in BDO production using the aerobic procedure used above in FIG. 5.

BDO pathway = type: cell-based, E. coli; conditions: host ECKh-432 with aldehyde dehydrogenase; 23G needle

CCCCCCCC=O [1-Octylaldehyde]
Relative Activity [1]: 87%

O=C(O)CCC(=O)C(=O)O [2-Oxoglutarate]
Activity (%) of D(−)-lactate dehydrogenase from L. leichmanii [2]: 0.0%
activity relative to activity on other branched-chain substrates [3]: 5%
Activity (%) of L(+)-lactate dehydrogenase from A. eutrophus [4]: 79.6%
Activity (%) of L(+)-lactate dehydrogenase from rabbit muscle [5]: 0.0%

CC(=O)c1ccccc1 [Acetophenone]
Relative Activity [1]: 0%

cytochrome bd oxidase: E. coli cytochrome d terminal oxidase, encoded by the cyd operon
Km [6]: 0.01 µM

CC(C=O)c1ccccc1 (stereo not shown) [2-Phenylpropionaldehyde]
Relative Activity [1]: 188%

0011: Gene ID 0011, adhE, E. coli, Aldehyde/alcohol dehydrogenase [Sample 0011]
Aldehyde dehydrogenase, Substrate Acetyl-CoA (Aldehyde dehydrogenase): 0.0095 μmol min^−1 mg cell protein^−1
Aldehyde dehydrogenase, Substrate Butyryl-CoA (Aldehyde dehydrogenase): 0.0069 μmol min^−1 mg cell protein^−1
Alcohol dehydrogenase, Substrate Acetaldehyde (Alcohol dehydrogenase): 0.0093 μmol min^−1 mg cell protein^−1
Alcohol dehydrogenase, Substrate Butyraldehyde (Alcohol dehydrogenase): 0.0265 μmol min^−1 mg cell protein^−1

O=CCc1ccccc1 [Phenylacetaldehyde]
Relative Activity [1]: 100%

B1: Cytochrome bo (protein, UniProt P0ABJ1 25-315; P0ABI8 1-663; P0ABJ3 1-204; P0ABJ6 1-109, looked up)
Cytochrome bo(3) ubiquinol … 1: CNSALLDPKGQIGLEQRSLILTAFGLMLIVVIPAILMAVGFAWKYRASNKDAKYSPNWSHSNKVEAVVWTVPILIIIFLAVLTWKTTHALEPSKPLAHDEKPITIEVVSMDWKWFFIYPEQGIATVNEIAFPANTPVYFKVTSNSVMNSFFIPRLGSQIYAMAGMQTRLHLIANEPGTYDGISASYSGPGFSGMKFKAIATPDRAAFDQWVAKAKQSPNTMSDMAAFEKLAAPSEYNQVEYFSNVKPDLFADVINKFMAHGKSMDMTQPEGEHSAHEGMEGMDMSHAESAH
Cytochrome bo(3) ubiquinol … 2: MFGKLSLDAVPFHEPIVMVTIAGIILGGLALVGLITYFGKWTYLWKEWLTSVDHKRLGIMYIIVAIVMLLRGFADAIMMRSQQALASAGEAGFLPPHHYDQIFTAHGVIMIFFVAMPFVIGLMNLVVPLQIGARDVAFPFLNNLSFWFTVVGVILVNVSLGVGEFAQTGWLAYPPLSGIEYSPGVGVDYWIWSLQLSGIGTTLTGINFFVTILKMRAPGMTMFKMPVFTWASLCANVLIIASFPILTVTVALLTLDRYLGTHFFTNDMGGNMMMYINLIWAWGHPEVYILILPVFGVFSEIAATFSRKRLFGYTSLVWATVCITVLSFIVWLHHFFTMGAGANVNAFFGITTMIIAIPTGVKIFNWLFTMYQGRIVFHSAMLWTIGFIVTFSVGGMTGVLLAVPGADFVLHNSLFLIAHFHNVIIGGVVFGCFAGMTYWWPKAFGFKLNETWGKRAFWFWIIGFFVAFMPLYALGFMGMTRRLSQQIDPQFHTMLMIAASGAVLIALGILCLVIQMYVSIRDRDQNRDLTGDPWGGRTLEWATSSPPPFYNFAVVPHVHERDAFWEMKEKGEAYKKPDHYEEIHMPKNSGAGIVIAAFSTIFGFAMIWHIWWLAIVGFAGMIITWIVKSFDEDVDYYVPVAEIEKLENQHFDEITKAGLKNGN
Cytochrome bo(3) ubiquinol … 3: MATDTLTHATAHAHEHGHHDAGGTKIFGFWIYLMSDCILFSILFATYAVLVNGTAGGPTGKDIFELPFVLVETFLLLFSSITYGMAAIAMYKNNKSQVISWLALTWLFGAGFIGMEIYEFHHLIVNGMGPDRSGFLSAFFALVGTHGLHVTSGLIWMAVLMVQIARRGLTSTNRTRIMCLSLFWHFLDVVWICVFTVVYLMGAM
Cytochrome bo(3) ubiquinol … 4: MSHSTDHSGASHGSVKTYMTGFILSIILTVIPFWMVMTGAASPAVILGTILAMAVVQVLVHLVCFLHMNTKSDEGWNMTAFVFTVLIIAILVVGSIWIMWNLNYNMMMH
Vmax (cytochrome-bd oxidases): 225 mol O/mol cytochrome bd/s

B2: PTB: phosphotransbutyrylase (ptb) from C. acetobutylicum, gene 0020 (protein, UniProt P58255 1-301, looked up)
Phosphate butyryltransferase: MIKSFNEIIMKVKSKEMKKVAVAVAQDEPVLEAVRDAKKNGIADAILVGDHDEIVSIALKIGMDVNDFEIVNEPNVKKAALKAVELVSTGKADMVMKGLVNTATFLRSVLNKEVGLRTGKTMSHVAVFETEKFDRLLFLTDVAFNTYPELKEKIDIVNNSVKVAHAIGIENPKVAPICAVEVINPKMPSTLDAAMLSKMSDRGQIKGCVVDGPLALDIALSEEAAHHKGVTGEVAGKADIFLMPNIETGNVMYKTLTYTTDSKNGGILVGTSAPVVLTSRADSHETKMNSIALAALVAGNK
specific activity of PTB [7]: approximately 5 U/mg

B3: 0026: Gene ID 0026, bdhA, Clostridium acetobutylicum ATCC 824, Butanol dehydrogenase (protein, UniProt Q04944 1-389, looked up)
NADH-dependent butanol …: MLSFDYSIPTKVFFGKGKIDVIGEEIKKYGSRVLIVYGGGSIKRNGIYDRATAILKENNIAFYELSGVEPNPRITTVKKGIEICRENNVDLVLAIGGGSAIDCSKVIAAGVYYDGDTWDMVKDPSKITKVLPIASILTLSATGSEMDQIAVISNMETNEKLGVGHDDMRPKFSVLDPTYTFTVPKNQTAAGTADIMSHTFESYFSGVEGAYVQDGIAEAILRTCIKYGKIAMEKTDDYEARANLMWASSLAINGLLSLGKDRKWSCHPMEHELSAYYDITHGVGLAILTPNWMEYILNDDTLHKFVSYGINVWGIDKNKDNYEIAREAIKNTREYFNSLGIPSKLREVGIGKDKLELMAKQAVRNSGGTIGSLRPINAEDVLEIFKKSY
Aldehyde dehydrogenase, Substrate Acetyl-CoA (Aldehyde dehydrogenase): 0.0005 μmol min^−1 mg cell protein^−1
Aldehyde dehydrogenase, Substrate Butyryl-CoA (Aldehyde dehydrogenase): 0 μmol min^−1 mg cell protein^−1
Alcohol dehydrogenase, Substrate Acetaldehyde (Alcohol dehydrogenase): 0.0008 μmol min^−1 mg cell protein^−1
Alcohol dehydrogenase, Substrate Butyraldehyde (Alcohol dehydrogenase): 0.0024 μmol min^−1 mg cell protein^−1

B4: 0034: Gene ID 0034, cat2, Porphyromonas gingivalis W83, 4-hydroxybutyrate coenzyme A transferase (protein, listed as Porphyromonas gingivalis)
chain: MKDVLAEYASRIVSAEEAVKHIKNGERVALSHAAGVPQSCVDALVQQADLFQNVEIYHMLCLGEGKYMAPEMAPHFRHITNFVGGNSRKAVEENRADFIPVFFYEVPSMIRKDILHIDVAIVQLSMPDENGYCSFGVSCDYSKPAAESAHLVIGEINRQMPYVHGDNLIHISKLDYIVMADYPIYSLAKPKIGEVEEAIGRNCAELIEDGATLQLGIGAIPDAALLFLKDKKDLGIHTEMFSDGVVELVRSGVITGKKKTLHPGKMVATFLMGSEDVYHFIDKNPDVELYPVDYVNDPRVIAQNDNMVSINSCIEIDLMGQVVSECIGSKQFSGTGGQVDYVRGAAWSKNGKSIMAIPSTAKNGTASRIVPIIAEGAAVTTLRNEVDYVVTEYGIAQLKGKSLRQRAEALIAIAHPDFREELTKHLRKRFG
BDO/OD ([8]; Host Strain MG1655 lacI^Q): 0.042
BDO ([8]; Host Strain MG1655 lacI^Q, aerobic procedure): 0.827 µM
BDO/OD ([8]; Host Strain MG1655 ΔadhE lacI^Q): 0.166
BDO ([8]; Host Strain MG1655 ΔadhE lacI^Q, aerobic procedure): 2.084 µM
BDO produced ([8]; with pZE13-0002, aerobic procedure): 2 mM
BDO and GBL levels (BDO pathway): significantly higher than 2021n
